A short description of data set [1]: Example 10: deglucosylation of saponins in crude bark extract (50%) using WT and engineered glucosidases G1 to G5. The class given is biochemical, Quillaja saponaria. The conditions noted are these: 50% CBE, 35 degC; for % Right Peak: starting CBE 26; for % Left Peak: starting CBE 30; for % Middle Peak: starting CBE 44. How it is done:
Lyophilised powders from clarified cell lysate expressing glucosidases (from Example 8 WT glucosidase and engineered glucosidase polypeptides G1 to G5) and rhamnosidases (from Example 9 WT rhamnosidase and engineered rhamnosidase polypeptides R1 to R5) were dissolved in 200 mM sodium acetate aqueous solution at pH 5.8 to prepare the enzyme solutions at 4 fold the final reaction concentration as shown in Tables 19 and 20.
Each glucosidase solution was combined with an equal volume of 200 mM sodium acetate aqueous solution at pH 5.8 and separately with an equal volume of 200 mM sodium acetate aqueous solution at pH 5.8 containing 2 mg/ml rhamnosidase R5. This is a sufficient loading of rhamnosidase to effect complete hydrolysis of the relevant rhamnose moiety within 4 hours.
CBE was adjusted to pH of 6.0 to 6.2 with 2M sodium hydroxide and an equal volume added to the enzyme solution to prepare the reaction mix (i.e. 50% CBE concentration in reaction mix) and the concentration of glucosidase and/or rhamnosidase is shown in Tables 19 and 20. The reaction mix was heated to 35 degC for the time indicated in Tables 19 and 20, after which the reaction was quenched by addition of an equal volume of MeCN containing 2% acetic acid and shaken at room temperature for 10 mins prior to centrifugation (10 min, 4 degC) to remove particulates. Samples were analysed by UV HPLC using method of Experiment 4-4.
The change in composition of the Left, Middle and Right peaks is shown in Tables 19 and 20. The composition changes by the action of the enzymes depending on the presence or absence of the partner enzyme. The extent of reaction is proportional to the enzyme concentration and the reaction time under these conditions. The tables show data for enzyme concentrations and the reaction times providing for equivalent extents of reaction. The improvement resulting from the mutations introduced for each variant is equal to the fold change in enzyme concentration×time (i.e. fold improvement=(enzyme concentration×time) for preceding variant÷(enzyme concentration×time) for later variant). A cumulative fold improvement over the original enzyme variant is calculated by the product of the individual fold improvements.

A short description of data set [2]: Example 8: screening of glucosidase variants for deglycosylation of saponins in crude bark extract (FIOP). The class given is biochemical, Quillaja saponaria. As to conditions: for Cumulative FIOP (cf WT): estimate; for FIOP: fold improvement over parent. How it is done:
Libraries of genetic variants encoding mutations in the wild type Modestobacter marinus glucosidase (SEQ ID No. 262) were prepared using molecular biology techniques, enzymes were prepared linked to an N-terminally located His-tag. Single monoclonal colonies were grown in 400 ul of expression medium and protein expressed. Cell pellets were lysed in 200 ul of the relevant buffer (Table 16)
Lysate was diluted appropriately in the relevant buffer to allow a lysate loading of the indicated % loading (1% loading corresponds to use of 2 ul original lysate in a 200 ul reaction). In some experiments a rhamnosidase was also present during the screening reaction (and also in controls, negating any impact on results).
Crude bark extract (CBE) obtained by aqueous extraction of Quillaja saponaria and containing at least 2.80 mg/ml QS-21 (by HPLC-UV). The pH of CBE was adjusted to pH 6 by dropwise addition of 2M NaOH with stirring. The relevant concentration of the relevant glucosidase was added. The appropriate relative volume of pH 6 CBE (160 ul (for 80%) or 150 ul (for 75%)) was added to each well of the reaction plate. The reaction plate was sealed and incubated at the relevant temperature with shaking overnight for between 18 and 22 hours.
The reaction plate was quenched by adding 200 uL of MeCN (2% AcOH, 1 mg/mL hexanophenone) to each well of the plates. The quenched reaction plate was re-sealed and incubated at 20 deg C. with shaking for 10 min. The reaction plate was then centrifuged (10 min, 4 degC).
200 uL was transferred from each well of the quenched plate to the corresponding wells of a fresh 96 well plate and sealed. The plate was analysed by UV HPLC with the method below:
A negative control (a lysate not expressing test enzymes) and a positive control (expressing the parent comparator—wild type or previous variant as appropriate). Fold improvement over parent (FIOP) for the glucosidase (shorter method) is calculated as follows:
% right peak=100*right peak area/(right peak area+left peak area)
Average % right peak area is calculated for negative controls (per plate) and subtracted from all wells to give the increase in % right peak for each well above average negative control Average increase in % right peak is calculated for positive controls per plate
FIOP=observed increase in % right peak divided by average positive control increase

Setting [3] is: glucosidase 0.1 mg/ml + rhamnosidase R5 0.5 mg/ml, 4 h.
Setting [4] is: glucosidase 0.1 mg/ml, no rhamnosidase, 4 h.
The mark [5] stands for this setting: screen temp 35, pH 6, lysate loading 0.14%, CBE loading 75%, 100 mM Sodium acetate, Rham Present.
Setting [6] is: glucosidase 1.56 mg/ml + rhamnosidase R5 0.5 mg/ml, 7 h.
Setting [7] is: glucosidase 1.56 mg/ml, no rhamnosidase, 7 h.
Setting [8] is: screen temp 20, pH 6, lysate loading 10%, CBE loading 80%, 100 mM Potassium phosphate, Rham None.

B1: Variant G5: engineered glucosidase polypeptide, variant of Modestobacter marinus glucosidase SEQ ID No. 262 (protein)
chain: MNPASSTRTDTMTDTTARTDSRLTDALAALSLEQKVQLLTGRDYWNTWPIEEIGLRRILVSDGPSGVRGEVWDERDPSLNLPSATALASAWDPDIARRYGAAAAVEARRKGVDVVLGPTINLHRSPLGGRHFEAFSEDPVLTAELAAAYVTGVQDNGVGATPKHYVANDFETDRFTVDVRADERTLRELYLLAFEKAVTEARAWLVMSAYNGINGATATENDLLETPLNSEWGFDGVVVSDWTAVRSLESARSSQDLVMPGPLGPWGDALVEAVRTGAIDESVVDRKVLRILTLAQRVGALEGSPAIDPVWVEDGVALAREAAVEGTVLLENRDELPWDATSLRKVAVIGNNAAWAMTQGGGSANVCPEYTVSPLDGVRAALPDAEVSYSLGAVVRDGLVELPLAELTNPVTGGPGLRARFLTADGAELFGEDRRKSVLVYQGGDAPIAAAATYELTARWTPTESQTVRLGFACFGAAQLYVDGELLVESDLQPSGTDLGAAFMNPLTASAEVELVAGKPVDVRLVHDLSAKEGFAAHALILQLGTEPAEVDEDALIAEAAEAAEAADVVLVVVGTNSIVESEGYDRESLSLPGRQDDLVRAVVAANPRTVVLVNAGAPVLLPWRDDVAALLLGWFGGQEFGNAVADVLLGVAEPGGRLPTTWPAAEADVPVLSCTPVDGVVEYTEGIHIGYRAWLRSGATPAYWFGSGQGYTCVELTGVEAPSRARPGEIVTVSVEVANRGERDGKQVVQVYAEKPDSTVDRPVRWLVGSAPVRVPAGQTAQVEVAVPTRYLAHWAGGWQYEPGVYRLRVGTTAVELPLETTLEVSA
modifications: Seq ID No. 262 with mutations F44Y, V263L, R357M, T365N, F442Q, L474C, I475F, F541I, A355W, L367C, Q396R
As for B1, the “time to complete hydrolysis of the relevant glucose moiety” value in data set [1] (2 mg/ml glucosidase G5 solution (before mixing with rhamnosidase solution and CBE)) is ≤ 4 h. For the same molecule, in data set [1] (from enzyme concentration x time for equivalent extent of reaction), the “cumulative fold improvement over WT glucosidase” value is “approximately 800 fold”. Besides, in data set [1] (setting [3]), the “% change in Left Peak” value was −34%, the “% change in Middle Peak” value is recorded as −83%, the “% change in Right Peak” value is 280% and the “Cumulative Fold improvement in primary enzyme loading × time” value turned out to be 834. In addition, in data set [1] (setting [3]), the “Fold improvement in primary enzyme loading × time” value worked out at 6.5, the “% Right Peak” value amounted to 73%, the “% Left Peak” value stood at 20% and the “% Middle Peak” value worked out at 7%. Moreover, in data set [1] (setting [4]), the “% change in Left Peak” value is −11%, the “% change in Middle Peak” value is reported as −56%, the “% change in Right Peak” value was determined as 208% and the “Cumulative Fold improvement in primary enzyme loading × time” value was 834. In data set [1] (setting [4]), the “Fold improvement in primary enzyme loading × time” value is 6.5, the “% Right Peak” value is given as 54%, the “% Left Peak” value is on record as 27% and the “% Middle Peak” value worked out at 19%. For the same molecule, in data set [2] (setting [5]), the “Cumulative FIOP (cf WT)” value is 900 and the FIOP is on record as 3.

B2: Variant G2: engineered glucosidase polypeptide, variant of Modestobacter marinus glucosidase SEQ ID No. 262 (protein)
chain: MNPASSTRTDTMTDTTARTDSRLTDALAALSLEQKVQLLTGRDFWNTWPIEEIGLRRILVSDGPSGVRGEVWDERDPSLNLPSATALASAWDPDIARRYGAAAAVEARRKGVDVVLGPTINLHRSPLGGRHFEAFSEDPVLTAELAAAYVTGVQDNGVGATPKHYVANDFETDRFTVDVRADERTLRELYLLAFEKAVTEARAWLVMSAYNGINGATATENDLLETPLNSEWGFDGVVVSDWTAVRSLESARSSQDLVMPGPVGPWGDALVEAVRTGAIDESVVDRKVLRILTLAQRVGALEGSPAIDPVWVEDGVALAREAAVEGTVLLENRDELPWDATSLRKVAVIGNNAAAAMTQGGGSANVLPEYTVSPLDGVRAALPDAEVSYSLGAVVQDGLVELPLAELTNPVTGGPGLRARFLTADGAELFGEDRRKSVLVYFGGDAPIAAAATYELTARWTPTESQTVRLGFFCFGAAQLYVDGELLVESDLQPSGTDLGAAFMNPLTASAEVELVAGKPVDVRLVHDLSAKEGFAAHALFLQLGTEPAEVDEDALIAEAAEAAEAADVVLVVVGTNSIVESEGYDRESLSLPGRQDDLVRAVVAANPRTVVLVNAGAPVLLPWRDDVAALLLGWFGGQEFGNAVADVLLGVAEPGGRLPTTWPAAEADVPVLSCTPVDGVVEYTEGIHIGYRAWLRSGATPAYWFGSGQGYTCVELTGVEAPSRARPGEIVTVSVEVANRGERDGKQVVQVYAEKPDSTVDRPVRWLVGSAPVRVPAGQTAQVEVAVPTRYLAHWAGGWQYEPGVYRLRVGTTAVELPLETTLEVSA
modifications: Seq ID No. 262 with mutations T365N, R357M, A473F, L474C, I475F
With B2, in data set [1] (setting [6]), the “% change in Left Peak” value was −26%, the “% change in Middle Peak” value is −82%, the “% change in Right Peak” value is given as 269% and the “Cumulative Fold improvement in primary enzyme loading × time” value is 32. For the same molecule, in data set [1] (setting [6]), the “Fold improvement in primary enzyme loading × time” value is 4.0, the “% Right Peak” value amounted to 70%, the “% Left Peak” value is recorded as 22% and the “% Middle Peak” value amounted to 8%. In data set [1] (setting [7]), the “% change in Left Peak” value was −15%, the “% change in Middle Peak” value was −57%, the “% change in Right Peak” value amounted to 213% and the “Cumulative Fold improvement in primary enzyme loading × time” value was 32. Moreover, in data set [1] (setting [7]), the “Fold improvement in primary enzyme loading × time” value amounted to 4.0, the “% Right Peak” value came to 55%, the “% Left Peak” value turned out to be 26% and the “% Middle Peak” value was 19%. Further, in data set [2] (setting [8]), the “Cumulative FIOP (cf WT)” value is reported as 50 and the FIOP came to 10.

Values taken from patent publication US20240026407A1, “MODIFICATION OF SAPONINS” (GLAXOSMITHKLINE BIOLOGICALS SA, priority 2020, published 2024).
